In the nanobody polyreactivity screen of Harvey et al. (2022):

Assay: yeast display, Sf9 membrane polyspecificity reagent, FACS + sequencing; frameworks hold sequencing errors
In short: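 A synthetic nanobody library was expressed on Saccharomyces cerevisiae BJ5465 by galactose induction for 36–48 hours. The library was stained for 1 hour at 4 °C with 10% biotinylated, detergent-solubilized Sf9 membrane reagent and enriched with streptavidin microbeads before FACS. Low and high (top ~1%) gates were set on anti-HA fluorescence for expression and streptavidin fluorescence for reagent binding, and each polyreactivity label reflects the gate of origin.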

Sequence	polyreactivity (PSR sort gate)
QVQLVESGGGLVQAGGSLGLSCAASGSTFAEYAMGWYRQAPGKERELVAVISFGDGNTYYADSVKGRVTISRDNAKNTVYLQMNSLKPEDTAVYYCNAADDSVDQSVRTLRQYEYWGQGTQVTVSS	low polyreactivity
QVQLVESGGGLVQAGGSLGLSCAASGSTLSAYVMGWYRQAPGKEREFVAAITWSGGNTYYADSVKGRFTISRDNAKHTVYLQMNSLKPEDTAVYFCARRGYRQSGDYWGQGTQVTVSS	low polyreactivity
QVQLVESGGGLVQAGGSLHLSCAASGSIFPYNLMGWYRQAPGKERELVAAISNTGSTNYADSVKGRFTISRDNAMNTVYFQMNSLKPDDTAVYYCNADGSYGFWSLLDYDYWGQGTQVTVSS	low polyreactivity
QVQLVESGGGLVQAGGSLLFSCAASGHIFRTYAMGWYRQAPGKERELVAAINIGGTTDYADSVKGRFTISRDNAKNTVYLQMNSLKPEDTAVYYCNAYNRFWEYVYWGQGTQVTVSS	low polyreactivity
QVQLVESGGGLVQAGGSLLLICAASGITFWSYAMGWYRQAPGKERELVAAISSTGSTNYADSVKGRFTISRDNAKNTVYLQMNSLKPEDTAVYYCAAEYTFWWSRTGKYYYWGQGTQVTVSS	high polyreactivity
QVQLVESGGGLVQAGGSLLLSCAASGFTFDYYAMGWYRQAPGKERELVAAITWSGGSTYYADSVKGRFTISRDNAKNTVYLQMNSLKPEDTAVYYCNAYYYHLYRGSTSYDYWGQGTQVTVSS	low polyreactivity
QVQLVESGGGLVQAGGSLLLSCAASGFTFGFNAMGWYRQAPGQERELGAAISRGGSTNYADSVKGRFTISRDNAKNTVYVQMNSLKPEDTAVYDCAADFITYVFRFYYWGQGTLVTVSS	low polyreactivity
QVQLVESGGGLVQAGGSLLLSCAASGFTFSYYAMGWYRQAPGKERDLVAAISWDGDSTYYADSVKGRFTISRDNAKNTVYLQMNSLKPEDTAVYYSAAEFSYYWDGYDYWGQGTQVTVSS	high polyreactivity
QVQLVESGGGLVQAGGSLLLSCAASGFTFTVYAMGWYILAPGKERELVAAISWNGGSTYYADSVKGRFTISRDNAKNTVYLQMNSLKPEDTAVYYCNTLQPYLYDYWGQGTQVTVSS	high polyreactivity
QVQLVESGGGLVQAGGSLLLSCAASGFTLPSYAMGWYIQAPGKERELVAAISSTGRTYYADSVKGRFTISRDNAKNTVYLQMNSLKPEDTAVYYCAARQDTWDAYLSTGEFDYWGQGTQVTVSS	high polyreactivity
QVQLVESGGGLVQAGGSLLLSCAASGGTFRVYAMGSYRQAPVKERELVAAITWRGGRTYYGDSVKGRFTISRDHAKNTVYLQMKRVKPEDTAVYFCAADRYGDLYDYWGQGTQVTVSS	high polyreactivity
QVQLVESGGGLVQAGGSLLLSCAASGIIFRYYAMGWYRQAPGKERELVADISSDGGTYYADSVKGRFTISLDNATNTVYLQMNSLKPEDTAVDYCAADYQFYWHYYYWGQGTQVTVSS	high polyreactivity
QVQLVESGGGLVQAGGSLLLSCAASGLTFVANAMGWYSQAPGKERELVARISSSGGSTYYADSVKGRFTISRDNAKNTVYLQMNSLKPEDTAVYYCTARAVRWYYSMNYWGQGTQVTVSS	high polyreactivity
QVQLVESGGGLVQAGGSLLLSCAASGLTFYPNAMGWYRQAPGKERELVAAISSSGDSTYSADSVKVRFTISRDNAKNTVYLQMNSLKPEDTAVYYCAADLGYYNARWYEYWGQGTQVTVSS	high polyreactivity
QVQLVESGGGLVQAGGSLLLSCAASGRTFILNAMGWYRQAPGKERELVAAISWSGGSTYYADSVKGRFTISRDKSKNTVYLQMNSLKPEDPAVYYCAAETYAYLFHTYDYGGQGTQVTVSS	low polyreactivity
QVQLVESGGGLVQAGGSLLLSCAASGRTFYYNAMGWYRQAPGKERELVAAISRGGNTNYADSVKGRFTISRDNAKNTVYLQMNSLKPEDTAVYYCSTYHRYKFYYWGQGTQVTVSS	high polyreactivity
QVQLVESGGGLVQAGGSLLLSCAASGSIFGWYAMGWYRQAPGKERELVAAISSSGDSTYYADSVKGRFTISRDNAKNTVYLQMNSLKPEDTAVYYCAAEYWPSSPSAPGFDYDHWGQGTQVTVSS	low polyreactivity
QVQLVESGGGLVQAGGSLLLSCAASGSIFRVYAMGGYRQAPGKESELVAAISVSGSSTYYADSVKGRFTISRDNAKNTVYFQMNCLKREDTAVYYCATKQRRGYWGYITAYARYYWGQGTQVSVSS	high polyreactivity
QVQLVESGGGLVQAGGSLLLSCAASGSTFIPYAMGWYRQAPWKERELVAAITWSSGSTYYADSVKVRFTISRDNAKNTVFLQMNSLKTEDTAVYYCARDRYSVFDYDYWGQGTQVTVSS	low polyreactivity
QVQLVESGGGLVQAGGSLLLSCAASVFIYRWYAMGWYRPAPGKERELVAGISASGGSTYYADSVKGRFTISRDNAKNTVYLQMNSLKPEDTAVYYCAAYRRNSRWELDYWGQGTQVTVSS	high polyreactivity
QVQLVESGGGLVQAGGSLLLSCAASVRIFQGYAMGWYRQEPGKERELVAAISSGGRTYYADSVKGRFTISRDNAKNTVYLQMNSLKPEDTAVYYCAARSPKAHGLQRFDYWGQGTQVTVSS	high polyreactivity
